Test results as given in patent US20170137490A1, “PEPTIDES, AND METHODS AND APPARATUS UTILISING SAME” (The University of Manchester, priority 2014, published 2017).

What was measured:
[1] = molecular target: T1, N-C3 (Homo sapiens, UniProt Q13018); experiment: SPR kinetics of patient sera autoantibodies over immobilized N-C3; settings: patient autoantibodies in sera binding to immobilized N-C3
T1 construct: the N-terminus to and including CTLD3 (N-C3); no tag is printed; made in house; host or cells: HEK 293-EBNA1
T1 sequence (Q13018 21-643 limits assumed): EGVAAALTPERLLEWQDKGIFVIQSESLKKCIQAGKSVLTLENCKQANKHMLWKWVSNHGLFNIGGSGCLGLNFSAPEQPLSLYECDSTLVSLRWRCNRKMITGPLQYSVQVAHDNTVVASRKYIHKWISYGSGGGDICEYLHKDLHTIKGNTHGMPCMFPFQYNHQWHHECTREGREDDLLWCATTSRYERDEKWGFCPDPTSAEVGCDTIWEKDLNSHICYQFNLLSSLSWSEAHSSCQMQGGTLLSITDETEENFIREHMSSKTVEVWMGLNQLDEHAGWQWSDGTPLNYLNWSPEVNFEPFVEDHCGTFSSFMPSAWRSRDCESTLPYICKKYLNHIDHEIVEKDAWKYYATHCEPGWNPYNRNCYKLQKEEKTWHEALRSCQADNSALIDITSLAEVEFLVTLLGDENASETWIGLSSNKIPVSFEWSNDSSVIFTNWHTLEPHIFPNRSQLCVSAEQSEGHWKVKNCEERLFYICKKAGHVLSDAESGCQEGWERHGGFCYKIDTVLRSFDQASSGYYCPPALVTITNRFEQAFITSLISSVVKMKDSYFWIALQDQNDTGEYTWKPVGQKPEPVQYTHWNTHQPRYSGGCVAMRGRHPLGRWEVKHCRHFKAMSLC
Procedure: Quantitation of serum antibody concentrations was performed on the Proteon XPR-36 (Bio-Rad) SPR instrument where the initial binding rates of purified human anti-PLA2R binding to N-C3 were used as standard curve to determine the concentration of anti-PLA2R in the unknown serum samples.

[2] = test system: human anti-PLA2R autoantibodies; experiment: Western blotting of PLA2R fragments with human anti-PLA2R autoantibodies; format: binding
[3] = Hydrodynamic radius from QELS; format: physicochemical; settings: pH 7.4
[4] = test system: anti-PLA2R autoantibodies in patient sera; experiment: N-C3 inhibition ELISA (autoantibody binding to N-C8); parameters: species or system human; settings: N-C3 9.0 μg ml-1; 43 PLA2R-positive sera
Procedure: The ELISA method was a variation on the standard assay previously described. Briefly, PLA2R (N-C8) at 125 ng ml-1 was coated onto ELISA plates overnight and plates blocked with Superblock (Thermo Scientific). 50 μl of 1:100 dilution of patient serum plus 50 μl of either buffer or NC-3 fragment to give a final concentration in the well of 9.0 μg ml-1, 0.9 μg ml-1, 0.09 μg ml-1 and 0.009 μg ml-1 were preincubated for 2 hours at room temperature before adding to the ELISA plate for a further 2 hours with shaking. Following extensive washing, anti-human IgG-HRP at 1:25,000 dilution in assay buffer was added to all wells for 2 hour incubation. Following washing, the plate was developed by adding substrate and the reaction terminated at 5 minutes by addition of 1 M H2SO4. Plates were read at 450 nm and inhibition curves constructed. The concentration of 9.0 μg ml-1 was used to compare the inhibition profile of 43 different sera previous reported as anti-PLA2R positive.

[5] = Sedimentation velocity (analytical ultracentrifugation); format: physicochemical; settings: for Frictional ratio (f/f0): from Mass derived from MALLS
Procedure: The experiments were performed using double sector cells and a rotor speed of 74,500 g for N-C8 and 116,500 g for N-C3, taking 150 scans at 1.5 minutes intervals at a wavelength of 280 nm and at a temperature of 20° C. The sedimenting boundaries were analyzed using the program Sedfit v8.7.

[6] = Dual polarisation interferometry, pH dependent conformational change; format: physicochemical; settings: pH range 5.0 to 7.2 screened; thickness of protein layer
Procedure: Dual polarisation interferometry was used to provide quantitative information on the thickness, the refractive index and density of the immobilized PLA2R layer with the capability to measure conformational change in real time. The DPI experiments were performed on a Farfield AnaLight instrument. […] N-C8 and N-C3 were regenerated between the different pHs with running buffer pH 7.2. Analysis of the raw data and determination of density, thickness and mass per unit area was achieved using the AnaLight® Bio200 analysis software (Farfield Scientific).

[7] = test system: purified anti-PLA2R antibody; settings: pH 6.2 (tight) vs pH 7.2 (extended)

Kd [1] [nM] | Substance | recognition by human anti-PLA2R autoantibodies [2] | Hydrodynamic radius [3] [nm] | Sedimentation coefficient (S20, w) ([5]; pH 6.2) | sedimentation coefficient ([5]; pH 6.2) [s] | Frictional ratio (f/f0) ([5]; pH 6.2) | sedimentation coefficient ([5]; pH 7.2) [s] | Sedimentation coefficient (S20, w) ([5]; pH 7.4) | Frictional ratio (f/f0) ([5]; pH 7.4) | also measured
0.043 | EDDLLWCATTSR [compound 3, Fibronectin type II domain peptide] |  |  |  |  |  |  |  |  | 
 | N-C2: recombinant PLA2R fragment, the N-terminus to and including CTLD2 | neither N-C2 nor C3 fragments were recognized |  |  |  |  |  |  |  | 
 | N-C3: recombinant PLA2R fragment, the N-terminus to and including CTLD3 | recognized | 3.81 ± 0.23 | 5.35 ± 0.10 | 5.3 | 1.39 | 5.3 | 5.29 ± 0.09 | 1.38 | patient sera in which binding of autoantibodies to N-C8 was effectively competed [4]: approximately 90%
 | N-C8: recombinant full length extracellular PLA2R | recognized | 6.25 ± 0.19 | 9.23 ± 0.25 | 9.2 | 1.32 | 8.1 | 8.08 ± 0.21 | 1.51 | pH region where the transition in conformation occurred [6]: ~6.2 pH; difference in affinity of anti-PLA2R binding between conformations [7]: no difference in affinity
0.085 | YLNHIDHEIVEKDAWK [compound 4, Linker between CTLD1 and CTLD2] |  |  |  |  |  |  |  |  | 
0.032 | YYATHCEPGWNPYNR [compound 5, Linker between CTLD1 and CTLD2] |  |  |  |  |  |  |  |  | 
